Source: article PMC5358875 (Journal of the American Chemical Society, 2017)
One block for each molecule: values may come before it. Bridge positions count the residues as written; N and C are the ends. Square brackets hold non-standard residues; d marks the D form. Ends that are not written are not given here. Peptide text beside a SMILES is read from it. I, II: the chains in the order shown. * marks the point of attachment. 5‑TAMRA = CN(C)c1ccc2c(-c3ccc(C(=O)*)cc3C(=O)[O-])c3ccc(N(C)C)cc3[o+]c2c1; Lys(N3) = [N-]=[N+]=NCCCC[C@H](N)C(=O)O; Aha = [N-]=[N+]=NCC[C@H](N)C(=O)O; m3c = not defined here; m3 = not defined here; Ahx = NCCCCCC(=O)O

T1: TNKS2 ARC4 (Homo sapiens, UniProt Q9H2K2)
T1 construct: GST (cleaved yes); made in house; host or cells: E. coli C41(DE3)
T1 sequence (Q9H2K2 488-649): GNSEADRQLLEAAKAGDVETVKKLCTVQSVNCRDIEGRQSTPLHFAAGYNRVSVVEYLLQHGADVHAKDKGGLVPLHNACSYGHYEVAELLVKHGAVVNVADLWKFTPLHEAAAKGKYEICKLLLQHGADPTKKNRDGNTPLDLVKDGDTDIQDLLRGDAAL

T2: human tankyrase 2 ankyrin repeat cluster 4 (TNKS2 ARC4, residues 488-649) (human, UniProt Q9H2K2 488-649)
T2 sequence (looked up): T1 sequence (Q9H2K2 488-649)

T3: human tankyrase 1 ankyrin repeat clusters 2-3 (TNKS1 ARC2-3, residues 315-662) (human, UniProt O95271 315-662)
T3 sequence (looked up): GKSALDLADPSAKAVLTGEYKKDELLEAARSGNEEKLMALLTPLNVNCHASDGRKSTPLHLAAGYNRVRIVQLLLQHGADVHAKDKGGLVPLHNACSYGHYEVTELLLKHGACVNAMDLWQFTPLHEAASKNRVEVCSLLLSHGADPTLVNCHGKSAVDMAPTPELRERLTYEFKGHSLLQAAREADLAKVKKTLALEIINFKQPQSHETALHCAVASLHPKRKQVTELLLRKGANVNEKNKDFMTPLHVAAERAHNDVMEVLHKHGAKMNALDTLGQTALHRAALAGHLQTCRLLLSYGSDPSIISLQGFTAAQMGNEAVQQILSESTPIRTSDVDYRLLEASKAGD

B1: T-cp4n2m3c-R6 (peptide)
chain 1: {5‑TAMRA-Ahx}-RE[Aha]GDG[Aha]E
chain 2: RRRRRR
modifications: triazole I:3-I:7 via m3c; not fully specified (N-terminus); reading uncertain; also: chain 2 N-terminus conjugated to m3c linker of chain 1
B2: TNKS1 ARC2–3 (315–662) (domain or fragment, human, UniProt O95271 315-662, looked up)
chain: T3 sequence (looked up)
B3: T-cp4n2m3c-Antp (peptide)
chain 1: REXGDGXE
chain 2: RQIKIWFQNRRMKWKK
modifications: 5-TAMRA-Ahx on the N-terminus; X3 and X7 (n2, 2 CH2): azido unnatural amino acids cross-linked through two triazoles by linker m3c, which carries the second chain | two Ahx spacers between the m3c linker and the N-terminus
B4: TNKS2 ARC4 (488–649) (domain or fragment, human, UniProt Q9H2K2 488-649, looked up)
chain: T1 sequence (Q9H2K2 488-649)

What was measured:
[1] = target: T1, TNKS2 ARC4; assay: Competitive fluorescence polarization, TNKS2 ARC4; assay type: binding; details: unlabeled peptides; tracer T-pep1 bound to ARC4; read-out: Kd TNKS2 ARC4 (Competition FP)
Description: Fluorescence polarization (FP) assays were performed in 96-well half area black microplates (Corning) on a CLARIOstar microplate reader (BMG labtech) using excitation filter 540–20 nm, dichroic mirror LP 566 nm, and emission filter 590–20 nm. All peptides were dissolved in water as stock solutions. For direct FP assays, the stock concentrations of the TAMRA-labeled peptides were determined based on the 5-TAMRA absorbance at 556 nm (extinction coefficient ε = 89,000 M^–1 cm^–1) measured on a NanoDrop 2000 (Thermo Scientific) and verified by amino acid analysis (Department of Biochemistry, University of Cambridge). […] Data were analyzed on GraphPad Prism 5.0, and the dissociation constant, Kd, was determined using the following equation assuming the ratio between the concentration of the bound and that of the total TAMRA-labeled peptide is proportional to the fluorescence polarization [drawing 1] where FP is the fluorescence polarization, B is the minimum FP, T is the maximum FP, L0 is the total concentration of TAMRA-labeled peptide, P0 is the total concentration of protein, and Kd is the dissociation constant.
For the competition FP assays, the stock concentrations of the unlabeled macrocyclized peptides or the Axin1 fragments were determined by amino acid analysis. […]

[2] = target: T2, human tankyrase 2 ankyrin repeat …; assay: fluorescence polarisation; direct: TNKS2 ARC4 or TNKS1 ARC2-3 diluted 2-fold serially (40-0 uM, 50 uL) and mixed with TAMRA-labeled peptide (20 nM, 50 uL); 50 mM HEPES pH 7.5, 300 mM NaCl, 2 mM DTT, 0.05% Tween 20; 30 min, 25 C; details: both partners purified
[3] = target: B4; assay: pull-down; GST-Axin1 1–80 on glutathione beads incubated with TNKS2 ARC4 (89 μM), washed, then incubated 0.5 h at room temperature with unlabeled peptide (0–200 μM); wash buffer 50 mM Tris·HCl pH 8.0, 500 mM NaCl, 2 mM DTT; SDS-PAGE, Coomassie, densitometry; details: both partners purified
[4] = target: human Axin1_1–80 (human, UniProt O15169 1-80); assay: ITC; TNKS2 ARC4 (160–280 μM) or TNKS1 ARC2–3 (60–150 μM) titrated into the cell holding peptide (5–15 μM) or Axin1 fragment (8–12 μM); PBS, 0.5 mM TCEP; 25 °C; one-site model; details: both partners purified
[5] = target: T2, human tankyrase 2 ankyrin repeat …; assay: fluorescence polarisation; direct: TNKS2 ARC4 or TNKS1 ARC2-3 diluted 2-fold serially (40-0 uM, 50 uL) and mixed with TAMRA-labeled peptide (20 nM, 50 uL); 50 mM HEPES pH 7.5, 300 mM NaCl, 2 mM DTT, 0.05% Tween 20; 30 min, 25 C; details: both partners purified; remark: listed apart in the source
[6] = target: T3, human tankyrase 1 ankyrin repeat …; assay: as above; details: both partners purified
[7] = target: T-cp4n2m3c; assay: fluorescence polarisation; direct FP; TAMRA-labeled peptide (20 nM, 50 μL) mixed with serially diluted TNKS2 ARC4 (40–0 μM, 50 μL); 50 mM HEPES pH 7.5, 300 mM NaCl, 2 mM DTT, 0.05% Tween 20; 30 min at 25 °C

Kd [1]: 2600 ± 100 nM
Molecule: CC(=O)N[C@@H](CCCNC(=N)N)C(=O)N[C@@H](CCC(=O)O)C(=O)N[C@@H](CCCCN=[N+]=[N-])C(=O)NCC(=O)N[C@@H](CC(=O)O)C(=O)NCC(=O)N[C@@H](CCC(=O)O)C(=O)N[C@@H](CCCCN=[N+]=[N-])C(N)=O [cp5n4] (Ac-RE[Lys(N3)]GDGE[Lys(N3)]-NH2)

Kd [1]: 1400 ± 100 nM
Molecule: CC(=O)N[C@@H](CCCNC(=N)N)C(=O)N[C@@H](CCC(=O)O)C(=O)N[C@@H](CCCCN=[N+]=[N-])C(=O)NCC(=O)N[C@@H](CC(=O)O)C(=O)NCC(=O)N[C@@H](CCCCN=[N+]=[N-])C(=O)N[C@@H](CCC(=O)O)C(N)=O [cp4n4] (Ac-RE[Lys(N3)]GDG[Lys(N3)]E-NH2)

Molecule: B1
Kd [2]: 950 ± 20 nM

IC50 [3]: ~20000 nM
Molecule: Ac-RE[Aha]GDG[Aha]E (triazole 3-7 via m3; reading uncertain) [cp4n2m3]

Molecule: B2
stoichiometry N [4]: 2

Kd [5]: 780 ± 60 nM
Kd [6]: 190 ± 4 nM
Molecule: {5‑TAMRA-Ahx}-REAGDGEE [T-pep1 (TAMRA-Ahx-REAGDGEE)]

Molecule: B3
Kd [2]: 490 ± 20 nM

Molecule: B4
stoichiometry N [4]: 1
fold higher affinity than T-pep1 [7]: 2 fold
